Data as given in publication doi:10.1101/2023.04.27.538529.

Assays:
[1] = molecular target: mouse E372K SH2B3 SH2 domain (residues 324-446) (mouse) (UniProt O09039); test: SPR
[2] = molecular target: mouse WT SH2B3 SH2 domain (residues 324-446) (mouse) (UniProt O09039); test: SPR

IC50 [1]: 685 nM
IC50 [2]: 127 nM
Substance: JAK2 pY813 peptide
